Measurements published in patent US20030100114, “Methods for regulating T cell subsets by modulating transcription factor activity” (President and Fellows of Harvard College, published 2003).

Tests used:
c-Jun [1] = target: T1, c-Jun (Mus musculus, UniProt P05627 P05627:1-334); assay: EMSA; consensus MARE contains core TRE site; conditions: tags: full-length, pGEM4, rabbit reticulocyte lysate TnT; label: 32P
Description: (§1) Electrophoretic mobility shift assays (EMSA) were performed as follows. 100 ng of double-stranded oligonucleotides were end-labeled with γ-³²P-dATP (DuPont NEN Research Product, Wilmington, Del.) using T4 polynucleotide kinase (Pharmacia LKB Biotechnology, Inc., Piscataway, N.J.). The labeled ds-oligonucleotides were fractionated on 15-20% polyacrylamide gels, eluted overnight at 37° C. in 1×TE and precipitated in ethanol. Binding assays were performed at room temperature for 20 minutes using 0.5 μg of recombinant proteins or 4 μl of in vitro translated products, 500 ng poly(dI-dC), and 20,000 cpm of probe in a 15 μl volume of 20 mM HEPES (pH 7.9), 100 mM KCl, 5% glycerol, 1 mM EDTA, 5 mM DTT, 0.1% NP-40, and 0.5 mg/ml BSA. The samples were then fractionated in 4% non-denaturing polyacrylamide gel containing 0.5×TBE at room temperature. Oligonucleotides derived from the murine IL4 promoter used in EMSA were: […]

[2] = target: T2, c-Maf (b-zip domain, aa 171-371) (UniProt P54843 P54843:171-370); assay: EMSA; 20 mM HEPES pH 7.9, 100 mM KCl, room temperature; conditions: tags: S-Tag, pET29, E. coli BL21(DE3); label: 32P
Description: as §1

c-Jun [3] = target: T1, c-Jun; assay: EMSA; conditions: tags: full-length, pGEM4, rabbit reticulocyte lysate TnT; label: 32P
Description: (§2) Electrophoretic mobility shift assays (EMSA) were performed as follows. 100 ng of double-stranded oligonucleotides were end-labeled with γ-³²P-dATP (DuPont NEN Research Product, Wilmington, Del.) using T4 polynucleotide kinase (Pharmacia LKB Biotechnology, Inc., Piscataway, N.J.). The labeled ds-oligonucleotides were fractionated on 15-20% polyacrylamide gels, eluted overnight at 37° C. in 1×TE and precipitated in ethanol. Binding assays were performed at room temperature for 20 minutes using 0.5 μg of recombinant proteins or 4 μl of in vitro translated products, 500 ng poly(dI-dC), and 20,000 cpm of probe in a 15 μl volume of 20 mM HEPES (pH 7.9), 100 mM KCl, 5% glycerol, 1 mM EDTA, 5 mM DTT, 0.1% NP-40, and 0.5 mg/ml BSA. The samples were then fractionated in 4% non-denaturing polyacrylamide gel containing 0.5×TBE at room temperature. Oligonucleotides derived from the murine IL4 promoter used in EMSA were:
(§3) NF-AT proteins interact cooperatively with AP-1 family member proteins to form higher mobility complexes on IL-2 and IL-4 promoter DNA on EMSA (Jain, J. (1993) Nature 365:353-355; Rooney, J. et al. (1995) Immunity 2:545-553). […] To determine if c-Maf interacted with NF-AT in the presence of DNA, recombinant NF-ATp and c-Maf proteins were used separately or together in EMSA with the 33 bp oligonucleotide containing both the NF-AT and adjacent MARE sites. […]

[4] = target: T2, c-Maf (b-zip domain, aa 171-371); assay: EMSA; competed by homologous unlabeled probe; additional complex formed with NF-ATp; conditions: tags: S-Tag, pET29, E. coli BL21(DE3); label: 32P
Description: as §2, §3

T1 sequence (P05627 whole entry, one chain of several): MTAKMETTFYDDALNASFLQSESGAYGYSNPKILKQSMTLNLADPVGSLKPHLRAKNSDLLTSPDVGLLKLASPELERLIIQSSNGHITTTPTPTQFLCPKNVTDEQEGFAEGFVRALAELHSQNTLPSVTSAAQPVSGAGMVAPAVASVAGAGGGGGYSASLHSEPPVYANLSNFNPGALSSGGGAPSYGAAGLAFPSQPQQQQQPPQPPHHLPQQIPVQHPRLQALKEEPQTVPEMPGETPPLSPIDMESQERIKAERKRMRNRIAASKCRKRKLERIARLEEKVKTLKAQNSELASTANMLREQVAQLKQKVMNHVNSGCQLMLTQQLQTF
T2 sequence (P54843 171-370, one chain of several): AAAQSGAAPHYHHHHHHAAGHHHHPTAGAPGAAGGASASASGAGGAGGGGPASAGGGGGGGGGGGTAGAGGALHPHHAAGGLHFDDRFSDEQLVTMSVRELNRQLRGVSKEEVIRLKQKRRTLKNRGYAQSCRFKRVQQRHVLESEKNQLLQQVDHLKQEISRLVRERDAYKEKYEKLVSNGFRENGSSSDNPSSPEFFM

B1: consensus MARE (dsDNA)
DNA 1: GGAATTGCTGACTCAGCATTACT
DNA 2: AGTAATGCTGAGTCAGCAATTCC
B1: binds (c-Jun [1]); binds [2].

B2: IL-4 promoter -59 to -27 wild type (dsDNA)
DNA 1: CTCATTTTCCCTTGGTTTCAGCAACTTTAACTC
DNA 2: GAGTTAAAGTTGCTGAAACCAAGGGAAAATGAG
B2: no binding (c-Jun [3]); binds [4].
